4 sequences from the supplement of paper PMC5998384 can be followed below.

Data set [1] relates to HeLa Kyoto. The experiment in a line: solubility in G1/S (NP-40 vs SDS abundance) (log2 ratio); higher = more soluble. Particulars: cell cycle stage: G1/S.
For data set [2], the system named is HeLa Kyoto. The experiment in a line: thermal stability score vs G1/S (z-score of summed log2 fold changes over temperatures); higher = more thermally stable than in G1/S.
Data set [3] relates to HeLa Kyoto. The experiment in a line: solubility change mitosis vs G1/S (difference of NP-40 vs SDS log2 ratios) (log2 ratio difference); higher = more soluble in mitosis.
The subject of data set [4] is HeLa Kyoto. The data set can be described thus: melting temperature (median over replicates), in situ; higher = more thermally stable.
The mark [5] stands for this setting: cell cycle stage: early G1 (4.5 h after nocodazole release).
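Wherever melting temperature (median over replicates), in situ is given: HeLa Kyoto cells synchronized by double thymidine or nocodazole block, proteins quantified by TMT10plex mass spectrometry, three independent biological replicates.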
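Wherever solubility change mitosis vs G1/S (difference of NP-40 vs SDS log2 ratios) is given: synchronized HeLa Kyoto cells (double thymidine block for G1/S, nocodazole release for mitosis), protein amounts in NP-40 versus SDS lysates quantified by mass spectrometry, three biological replicates.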
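Wherever solubility in G1/S (NP-40 vs SDS abundance) is given: HeLa Kyoto cells arrested at G1/S by double thymidine block, proteins quantified by TMT10plex mass spectrometry in mild NP-40 versus SDS extracts, three biological replicates.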
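Wherever thermal stability score vs G1/S (z-score of summed log2 fold changes over temperatures) is given: synchronized HeLa Kyoto cells, proteins quantified by TMT10plex mass spectrometry, three biological replicates, mitosis taken 0.5 h after nocodazole release, G1/S directly after double thymidine block.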

With “MGAYLSQPNTVKCSGDGVGAPRLPLPYGFSAMQGWRVSMEDAHNCIPELDSETAMFSVYDGHGGEEVALYCAKYLPDIIKDQKAYKEGKLQKALEDAFLAIDAKLTTEEVIKELAQIAGRPTEDEDEKEKVADEDDVDNEEAALLHEEATMTIEELLTRYGQNCHKGPPHSKSGGGTGEEPGSQGLNGEAGPEDSTRETPSQENGPTAKAYTGFSSNSERGTEAGQVGEPGIPTGEAGPSCSSASDKLPRVAKSKFFEDSEDESDEAEEEEEDSEECSEEEDGYSSEEAENEEDEDDTEEAEEDDEEEEEEMMVPGMEGKEEPGSDSGTTAVVALIRGKQLIVANAGDSRCVVSEAGKALDMSYDHKPEDEVELARIKNAGGKVTMDGRVNGGLNLSRAIGDHFYKRNKNLPPEEQMISALPDIKVLTLTDDHEFMVIACDGIWNVMSSQEVVDFIQSKISQRDENGELRLLSSIVEELLDQCLAPDTSGDGTGCDNMTCIIICFKPRNTAELQPESGKRKLEEVLSTEGAEENGNSDKKKKAKRD [PPM1G]”, the “solubility in G1/S (log2)” value with HeLa Kyoto [1] turned out to be 0.104. Besides, the figures for the thermal stability score in the data set with HeLa Kyoto [2] (setting [5]) and in the data set with HeLa Kyoto [2] (cell cycle stage: mitosis) were 2.65 and 8.41, respectively. Further, the “solubility change mitosis (log2)” value in the data set on HeLa Kyoto [3] was -0.0729. The melting temperature worked out at 48.4 °C with HeLa Kyoto [4] (cell cycle stage: G1/S) and 49.4 °C in the data set on HeLa Kyoto [4] (cell cycle stage: mitosis).

With “MGCFFSKRRKADKESRPENEEERPKQYSWDQREKVDPKDYMFSGLKDETVGRLPGTVAGQQFLIQDCENCNIYIFDHSATVTIDDCTNCIIFLGPVKGSVFFRNCRDCKCTLACQQFRVRDCRKLEVFLCCATQPIIESSSNIKFGCFQWYYPELAFQFKDAGLSIFNNTWSNIHDFTPVSGELNWSLLPEDAVVQDYVPIPTTEELKAVRVSTEANRSIVPISRGQRQKSSDESCLVVLFAGDYTIANARKLIDEMVGKGFFLVQTKEVSMKAEDAQRVFREKAPDFLPLLNKGPVIALEFNGDGAVEVCQLIVNEIFNGTKMFVSESKETASGDVDSFYNFADIQMGI [RP2]”, the “solubility in G1/S (log2)” value in the data set on HeLa Kyoto [1] was -0.343. Further, the results for the thermal stability score in the data set on HeLa Kyoto [2] (setting [5]) and in the data set on HeLa Kyoto [2] (cell cycle stage: mitosis) were -0.738 and -0.982, respectively. Besides, the “solubility change mitosis (log2)” value with HeLa Kyoto [3] is -0.158. In addition, the melting temperature is 51.6 °C in the data set on HeLa Kyoto [4] (cell cycle stage: G1/S) and 51.1 °C in the data set on HeLa Kyoto [4] (cell cycle stage: mitosis).

Regarding “MGCIKSKGKDSLSDDGVDLKTQPVRNTERTIYVRDPTSNKQQRPVPESQLLPGQRFQTKDPEEQGDIVVALYPYDGIHPDDLSFKKGEKMKVLEEHGEWWKAKSLLTKKEGFIPSNYVAKLNTLETEEWFFKDITRKDAERQLLAPGNSAGAFLIRESETLKGSFSLSVRDFDPVHGDVIKHYKIRSLDNGGYYISPRITFPCISDMIKHYQKQADGLCRRLEKACISPKPQKPWDKDAWEIPRESIKLVKRLGAGQFGEVWMGYYNNSTKVAVKTLKPGTMSVQAFLEEANLMKTLQHDKLVRLYAVVTREEPIYIITEYMAKGSLLDFLKSDEGGKVLLPKLIDFSAQIAEGMAYIERKNYIHRDLRAANVLVSESLMCKIADFGLARVIEDNEYTAREGAKFPIKWTAPEAINFGCFTIKSDVWSFGILLYEIVTYGKIPYPGRTNADVMTALSQGYRMPRVENCPDELYDIMKMCWKEKAEERPTFDYLQSVLDDFYTATEGQYQQQP [LYN]”, the “solubility in G1/S (log2)” value in the data set with HeLa Kyoto [1] was -0.416. Further, the thermal stability score was 1.11 with HeLa Kyoto [2] (setting [5]) and 0.805 in the data set on HeLa Kyoto [2] (cell cycle stage: mitosis). Besides, the “solubility change mitosis (log2)” value in the data set on HeLa Kyoto [3] is -0.0796. Further, the melting temperature in the data set with HeLa Kyoto [4] (cell cycle stage: G1/S) was 51.1 °C; in the data set with HeLa Kyoto [4] (cell cycle stage: mitosis), 50.7 °C.

Regarding “MGDAADPREMRKTFIVPAIKPFDHYDFSRAKIACNLAWLVAKAFGTENVPEELQEPFYTDQYDQEHIKPPVVNLLLSAELYCRAGSLILKSDAAKPLLGHDAVIQALAQKGLYVTDQEKLVTERDLHKKPIQMSAHLAMIDTLMMAYTVEMVSIEKVIACAQQYSAFFQATDLPYDIEDAVMYWINKVNEHLKDIMEQEQKLKEHHTVEAPGGQKSPSKWFWKLVPARYRKEQTLLKQLPCIPLVENLLKDGTDGCALAALIHFYCPDVVRLEDICLKETMSLADSLYNLQLIQEFCQEYLNQCCHFTLEDMLYAASSIKSNYLVFMAELFWWFEVVKPSFVQPRVVRPQGAEPVKDMPSIPVLNAAKRNVLDSSSDFPSSGEGATFTQSHHHLPSRYSRPQAHSSASGGIRRSSSMSYVDGFIGTWPKEKRSSVHGVSFDISFDKEDSVQRSTPNRGITRSISNEGLTLNNSHVSKHIRKNLSFKPINGEEEAESIEEELNIDSHSDLKSCVPLNTNELNSNENIHYKLPNGALQNRILLDEFGNQIETPSIEEALQIIHDTEKSPHTPQPDQIANGFFLHSQEMSILNSNIKLNQSSPDNVTDTKGALSPITDNTEVDTGIHVPSEDIPETMDEDSSLRDYTVSLDSDMDDASKFLQDYDIRTGNTREALSPCPSTVSTKSQPGSSASSSSGVKMTSFAEQKFRKLNHTDGKSSGSSSQKTTPEGSELNIPHVVAWAQIPEETGLPQGRDTTQLLASEMVHLRMKLEEKRRAIEAQKKKMEAAFTKQRQKMGRTAFLTVVKKKGDGISPLREEAAGAEDEKVYTDRAKEKESQKTDGQRSKSLADIKESMENPQAKWLKSPTTPIDPEKQWNLASPSEETLNEGEILEYTKSIEKLNSSLHFLQQEMQRLSLQQEMLMQMREQQSWVISPPQPSPQKQIRDFKPSKQAGLSSAIAPFSSDSPRPTHPSPQSSNRKSASFSVKSQRTPRPNELKITPLNRTLTPPRSVDSLPRLRRFSPSQVPIQTRSFVCFGDDGEPQLKESKPKEEVKKEELESKGTLEQRGHNPEEKEIKPFESTVSEVLSLPVTETVCLTPNEDQLNQPTEPPPKPVFPPTAPKNVNLIEVSLSDLKPPEKADVPVEKYDGESDKEQFDDDQKVCCGFFFKDDQKAENDMAMKRAALLEKRLRREKETQLRKQQLEAEMEHKKEETRRKTEEERQKKEDERARREFIRQEYMRRKQLKLMEDMDTVIKPRPQVVKQKKQRPKSIHRDHIESPKTPIKGPPVSSLSLASLNTGDNESVHSGKRTPRSESVEGFLSPSRCGSRNGEKDWENASTTSSVASGTEYTGPKLYKEPSAKSNKHIIQNALAHCCLAGKVNEGQKKKILEEMEKSDANNFLILFRDSGCQFRSLYTYCPETEEINKLTGIGPKSITKKMIEGLYKYNSDRKQFSHIPAKTLSASVDAITIHSHLWQTKRPVTPKKLLPTKA [CAMSAP2]”, the “solubility in G1/S (log2)” value in the data set with HeLa Kyoto [1] turned out to be 0.00851. Besides, the thermal stability score was determined as 1.04 in the data set on HeLa Kyoto [2] (setting [5]) and 2.88 with HeLa Kyoto [2] (cell cycle stage: mitosis). Also, in the data set with HeLa Kyoto [3], the “solubility change mitosis (log2)” value is -0.0823. The results for the melting temperature with HeLa Kyoto [4] (cell cycle stage: G1/S) and in the data set on HeLa Kyoto [4] (cell cycle stage: mitosis) were 51.7 °C and 53 °C, respectively.
